Source: US20250197467A1
Like-named read-outs stand apart in the source and are kept apart here.

Legend:
[1] = biological target: His-tagged human IL-18BP (human) (UniProt O95998); test: AlphaLISA of free IL-18BP
[2] = biological target: His-tagged human IL-18BP (human) (UniProt O95998); test: AlphaLISA of free IL-18BP; remark: listed apart in the source
[3] = biological target: His-tagged human IL-18BP (human) (UniProt O95998); test: AlphaLISA of free IL-18BP (analyte titrated in assay buffer against 5 ng/ml His-tagged human IL-18BP; falling signal = IL-18BP bound)
[4] = biological target: Composition E, MMP9-treated (Homo sapiens (Human)) (UniProt Q14116)
[5] = biological target: Composition S (Homo sapiens (Human)) (UniProt Q14116)
[6] = biological target: C086 (SEQ ID NO: 30) (Homo sapiens (Human)) (UniProt Q14116); test: cell-based or functional assay
C143 (human) = C143 (human) (UniProt Q14116); test: cell-based or functional assay
C144 (human) = C144 (human) (UniProt Q14116); test: cell-based or functional assay
C145 (human) = C145 (human) (UniProt Q14116); test: cell-based or functional assay
[7] = biological target: C146 (Homo sapiens (Human)) (UniProt Q14116); test: cell-based or functional assay
C147 (human) = C147 (human) (UniProt Q14116); test: cell-based or functional assay
C148 (human) = C148 (human) (UniProt Q14116); test: cell-based or functional assay
C149 (human) = C149 (human) (UniProt Q14116); test: cell-based or functional assay
C150 (human) = C150 (human) (UniProt Q14116); test: cell-based or functional assay
C151 (human) = C151 (human) (UniProt Q14116); test: cell-based or functional assay
C152 (human) = C152 (human) (UniProt Q14116); test: cell-based or functional assay
C153 (human) = C153 (human) (UniProt Q14116); test: cell-based or functional assay
C154 (human) = C154 (human) (UniProt Q14116); test: cell-based or functional assay
C155 (human) = C155 (human) (UniProt Q14116); test: cell-based or functional assay
C156 (human) = C156 (human) (UniProt Q14116); test: cell-based or functional assay
C157 (human) = C157 (human) (UniProt Q14116); test: cell-based or functional assay
C158 (human) = C158 (human) (UniProt Q14116); test: cell-based or functional assay
C159 (human) = C159 (human) (UniProt Q14116); test: cell-based or functional assay
C160 (human) = C160 (human) (UniProt Q14116); test: cell-based or functional assay
C161 (human) = C161 (human) (UniProt Q14116); test: cell-based or functional assay
C162 (human) = C162 (human) (UniProt Q14116); test: cell-based or functional assay
C163 (human) = C163 (human) (UniProt Q14116); test: cell-based or functional assay
C164 (human) = C164 (human) (UniProt Q14116); test: cell-based or functional assay
C165 (human) = C165 (human) (UniProt Q14116); test: cell-based or functional assay
C166 (human) = C166 (human) (UniProt Q14116); test: cell-based or functional assay
C167 (human) = C167 (human) (UniProt Q14116); test: cell-based or functional assay
C168 (human) = C168 (human) (UniProt Q14116); test: cell-based or functional assay
[8] = biological target: C190 (Homo sapiens (Human)) (UniProt Q14116); test: cell-based or functional assay
[9] = biological target: IL-18 WT (SEQ ID NO: 1) (human) (UniProt Q14116); test: cell-based or functional assay
[10] = biological target: SEQ ID NO 34 (Homo sapiens (Human)) (UniProt Q14116); test: cell-based or functional assay
[11] = biological target: SEQ ID NO 35 (Homo sapiens (Human)) (UniProt Q14116); test: cell-based or functional assay
[12] = biological target: SEQ ID NO 36 (Homo sapiens (Human)) (UniProt Q14116); test: cell-based or functional assay
[13] = biological target: SEQ ID NO 37 (Homo sapiens (Human)) (UniProt Q14116); test: cell-based or functional assay
[14] = biological target: SEQ ID NO 38 (Homo sapiens (Human)) (UniProt Q14116); test: cell-based or functional assay
[15] = biological target: SEQ ID NO 39 (Homo sapiens (Human)) (UniProt Q14116); test: cell-based or functional assay
[16] = biological target: SEQ ID NO 4 (Homo sapiens (Human)) (UniProt Q14116); test: cell-based or functional assay
[17] = biological target: SEQ ID NO 40 (Homo sapiens (Human)) (UniProt Q14116); test: cell-based or functional assay
[18] = biological target: SEQ ID NO 41 (Homo sapiens (Human)) (UniProt Q14116); test: cell-based or functional assay
[19] = biological target: SEQ ID NO 42 (Homo sapiens (Human)) (UniProt Q14116); test: cell-based or functional assay
[20] = biological target: SEQ ID NO 43 (Homo sapiens (Human)) (UniProt Q14116); test: cell-based or functional assay
[21] = biological target: SEQ ID NO 46 (Homo sapiens (Human)) (UniProt Q14116); test: cell-based or functional assay
[22] = biological target: SEQ ID NO 47 (Homo sapiens (Human)) (UniProt Q14116); test: cell-based or functional assay
[23] = biological target: SEQ ID NO 48 (Homo sapiens (Human)) (UniProt Q14116); test: cell-based or functional assay
[24] = biological target: SEQ ID NO 5 (Homo sapiens (Human)) (UniProt Q14116); test: cell-based or functional assay
[25] = biological target: SEQ ID NO 50 (Homo sapiens (Human)) (UniProt Q14116); test: cell-based or functional assay
[26] = biological target: SEQ ID NO 51 (Homo sapiens (Human)) (UniProt Q14116); test: cell-based or functional assay
[27] = biological target: SEQ ID NO 52 (Homo sapiens (Human)) (UniProt Q14116); test: cell-based or functional assay
[28] = biological target: SEQ ID NO 53 (Homo sapiens (Human)) (UniProt Q14116); test: cell-based or functional assay
[29] = biological target: SEQ ID NO 54 (Homo sapiens (Human)) (UniProt Q14116); test: cell-based or functional assay
[30] = biological target: SEQ ID NO 55 (Homo sapiens (Human)) (UniProt Q14116); test: cell-based or functional assay
[31] = biological target: SEQ ID NO 57 (Homo sapiens (Human)) (UniProt Q14116); test: cell-based or functional assay
[32] = biological target: SEQ ID NO 59 (Homo sapiens (Human)) (UniProt Q14116); test: cell-based or functional assay
[33] = biological target: SEQ ID NO 6 (Homo sapiens (Human)) (UniProt Q14116); test: cell-based or functional assay
[34] = biological target: SEQ ID NO 60 (Homo sapiens (Human)) (UniProt Q14116); test: cell-based or functional assay
[35] = biological target: SEQ ID NO 62 (Homo sapiens (Human)) (UniProt Q14116); test: cell-based or functional assay
[36] = biological target: SEQ ID NO 9 (Homo sapiens (Human)) (UniProt Q14116); test: cell-based or functional assay
Sequence of SEQ ID NO 9 (Homo sapiens (Human)) (Q14116 other isoform, or with tags, fused parts or gaps): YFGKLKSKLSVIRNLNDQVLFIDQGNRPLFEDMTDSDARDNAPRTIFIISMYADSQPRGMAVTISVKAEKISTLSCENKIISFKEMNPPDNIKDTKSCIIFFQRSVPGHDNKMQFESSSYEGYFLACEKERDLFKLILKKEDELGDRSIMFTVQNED

Sequence of His-tagged human IL-18BP (human) (O95998 31-194): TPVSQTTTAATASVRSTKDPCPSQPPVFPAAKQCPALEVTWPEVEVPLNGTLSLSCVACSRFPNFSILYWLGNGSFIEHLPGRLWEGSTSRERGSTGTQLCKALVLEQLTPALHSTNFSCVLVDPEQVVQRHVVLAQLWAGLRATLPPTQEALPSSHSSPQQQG
Sequence of Fc-fused human IL-18 binding protein isoform a (IL-18BPa) (O95998 31-194 limits assumed): as the sequence (O95998 31-194) above
Sequence of IL-18 WT (SEQ ID NO: 1) (Q14116 37-193): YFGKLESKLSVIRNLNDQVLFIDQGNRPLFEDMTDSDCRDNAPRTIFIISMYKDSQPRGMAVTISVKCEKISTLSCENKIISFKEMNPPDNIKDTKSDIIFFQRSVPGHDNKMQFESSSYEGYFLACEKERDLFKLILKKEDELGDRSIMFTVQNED
Sequence of IL-18 WT (SEQ ID NO: 1) (human) (Q14116 37-193): as above
Sequence of SEQ ID NO 54 (Homo sapiens (Human)) (Q14116 other isoform, or with tags, fused parts or gaps): as the sequence (Q14116 37-193) above, with E6K, C38S, K53A, C68S, K70C, C76S, C127S counted along it
Sequence of SEQ ID NO 4 (Homo sapiens (Human)) (Q14116 other isoform, or with tags, fused parts or gaps): as the sequence (Q14116 37-193) above, with E6K, C38A, K53A, C68A, M86C counted along it
Sequence of SEQ ID NO 42 (Homo sapiens (Human)) (Q14116 other isoform, or with tags, fused parts or gaps): as the sequence (Q14116 37-193) above, with E6K, K53A, S55A, T63A counted along it
Sequence of SEQ ID NO 48 (Homo sapiens (Human)) (Q14116 other isoform, or with tags, fused parts or gaps): as the sequence (Q14116 37-193) above, with C38S, C68S, K70C, C76S, C127S counted along it
Sequence of SEQ ID NO 40 (Homo sapiens (Human)) (Q14116 other isoform, or with tags, fused parts or gaps): as the sequence (Q14116 37-193) above, with E6K, S55A counted along it
Sequence of SEQ ID NO 59 (Homo sapiens (Human)) (Q14116 other isoform, or with tags, fused parts or gaps): as the sequence (Q14116 37-193) above, with E6K, C38A, K53A counted along it
Sequence of SEQ ID NO 62 (Homo sapiens (Human)) (Q14116 other isoform, or with tags, fused parts or gaps): as the sequence (Q14116 37-193) above, with E6K, C38A, K53A, C127A counted along it
Sequence of C154 (human) (Q14116 other isoform, or with tags, fused parts or gaps): as the sequence (Q14116 37-193) above, with V11I, E31A, D37A, C38A, K53A, C76A, C127A counted along it
Sequence of C168 (human) (Q14116 other isoform, or with tags, fused parts or gaps): as the sequence (Q14116 37-193) above, with V11I, C38A, C76A, S105K, C127A counted along it
Sequence of SEQ ID NO 50 (Homo sapiens (Human)) (Q14116 other isoform, or with tags, fused parts or gaps): as the sequence (Q14116 37-193) above, with E6K, K53A, T63A counted along it
Sequence of C166 (human) (Q14116 other isoform, or with tags, fused parts or gaps): as the sequence (Q14116 37-193) above, with V11I, C38A, S55T, C76A, C127A counted along it
Sequence of C162 (human) (Q14116 other isoform, or with tags, fused parts or gaps): as the sequence (Q14116 37-193) above, with K8E, V11I, C38A, C76A, Q103R, C127A counted along it
Sequence of C157 (human) (Q14116 other isoform, or with tags, fused parts or gaps): as the sequence (Q14116 37-193) above, with V11I, C38A, K53A, C76A, C127A, D132A counted along it
Sequence of C167 (human) (Q14116 other isoform, or with tags, fused parts or gaps): as the sequence (Q14116 37-193) above, with V11I, C38A, C76A, S105I, C127A counted along it
Sequence of SEQ ID NO 60 (Homo sapiens (Human)) (Q14116 other isoform, or with tags, fused parts or gaps): as the sequence (Q14116 37-193) above, with E6K, C38Q, K53A counted along it
Sequence of SEQ ID NO 6 (Homo sapiens (Human)) (Q14116 other isoform, or with tags, fused parts or gaps): as the sequence (Q14116 37-193) above, with E6K, V11I, C38A, K53A, T63A, C68A, C76A, D98C, C127A counted along it
Sequence of C143 (human) (Q14116 other isoform, or with tags, fused parts or gaps): as the sequence (Q14116 37-193) above, with V11I, C38A, K53A, C76A, C127A counted along it
Sequence of C159 (human) (Q14116 other isoform, or with tags, fused parts or gaps): as the sequence (Q14116 37-193) above, with V11I, C38A, K53A, C76A, H109A, C127A counted along it
Sequence of C164 (human) (Q14116 other isoform, or with tags, fused parts or gaps): as the sequence (Q14116 37-193) above, with V11I, C38A, S55H, C76A, C127A counted along it
Sequence of SEQ ID NO 5 (Homo sapiens (Human)) (Q14116 other isoform, or with tags, fused parts or gaps): as the sequence (Q14116 37-193) above, with E6K, V11I, C38A, K53A, T63A, C68A, C76A, M86C, C127A counted along it
Sequence of C163 (human) (Q14116 other isoform, or with tags, fused parts or gaps): as the sequence (Q14116 37-193) above, with V11I, C38A, C76A, Q103K, C127A counted along it
Sequence of C151 (human) (Q14116 other isoform, or with tags, fused parts or gaps): as the sequence (Q14116 37-193) above, with V11I, D35A, C38A, K53A, C76A, C127A counted along it
Sequence of C152 (human) (Q14116 other isoform, or with tags, fused parts or gaps): as the sequence (Q14116 37-193) above, with V11I, S36A, C38A, K53A, C76A, C127A counted along it

“IL-18 WT (SEQ ID NO: 1) (from UniProt Q14116 37-193) (ligand)” showed a Kd [1] of 0.403 nM, a Kd [2] of 0.67 nM and an IC50 (read off the curve) [3] of 0.08 nM.
Work on “Fc-fused human IL-18 binding protein isoform a (IL-18BPa) (from UniProt O95998 31-194) (Fc fusion)” yielded an IC50 (read off the curve), PD-1 positive NK-92 cells [4] of 8 nM, an IC50 (read off the curve), PD-1 negative NK-92 cells [5] of 8 nM and an IL-18BP-mediated IFNγ inhibition NK-92 assay IC50 [6] of 22.5 nM. It also gave an IC50 (IL-18BP inhibition of IFNγ, NK92) (C143 (human)) of 1.62 nM, an IC50 (IL-18BP inhibition of IFNγ, NK92) (C144 (human)) of 7.52 nM and an IC50 (IL-18BP inhibition of IFNγ, NK92) (C145 (human)) of 10.2 nM. The IC50 (IL-18BP inhibition of IFNγ, NK92) [7] was 733 nM, the IC50 (IL-18BP inhibition of IFNγ, NK92) (C147 (human)) was 47.6 nM and the IC50 (IL-18BP inhibition of IFNγ, NK92) (C148 (human)) was 5.05 nM. For the same substance, the IC50 (IL-18BP inhibition of IFNγ, NK92) (C149 (human)) was 1.17 nM, the IC50 (IL-18BP inhibition of IFNγ, NK92) (C150 (human)) was 21.3 nM and the IC50 (IL-18BP inhibition of IFNγ, NK92) (C151 (human)) was 3.62 nM. The IC50 (IL-18BP inhibition of IFNγ, NK92) (C152 (human)) was 7.85 nM, the IC50 (IL-18BP inhibition of IFNγ, NK92) (C153 (human)) was 2.22 nM and the IC50 (IL-18BP inhibition of IFNγ, NK92) (C154 (human)) was 3.71 nM. The IC50 (IL-18BP inhibition of IFNγ, NK92) (C155 (human)) was 3.23 nM, the IC50 (IL-18BP inhibition of IFNγ, NK92) (C156 (human)) was 0.681 nM and the IC50 (IL-18BP inhibition of IFNγ, NK92) (C157 (human)) was 6.08 nM. The IC50 (IL-18BP inhibition of IFNγ, NK92) (C158 (human)) was 3.98 nM, the IC50 (IL-18BP inhibition of IFNγ, NK92) (C159 (human)) was 1.81 nM and the IC50 (IL-18BP inhibition of IFNγ, NK92) (C160 (human)) was 3.18 nM. For the same substance, the IC50 (IL-18BP inhibition of IFNγ, NK92) (C161 (human)) was 1.07 nM, the IC50 (IL-18BP inhibition of IFNγ, NK92) (C162 (human)) was 7.29 nM and the IC50 (IL-18BP inhibition of IFNγ, NK92) (C163 (human)) was 0.823 nM. For the same substance, the IC50 (IL-18BP inhibition of IFNγ, NK92) (C164 (human)) was 0.456 nM, the IC50 (IL-18BP inhibition of IFNγ, NK92) (C165 (human)) was 0.885 nM and the IC50 (IL-18BP inhibition of IFNγ, NK92) (C166 (human)) was 0.44 nM. The IC50 (IL-18BP inhibition of IFNγ, NK92) (C167 (human)) was 0.809 nM, the IC50 (IL-18BP inhibition of IFNγ, NK92) (C168 (human)) was 0.176 nM and the IL-18BP-mediated IFNγ inhibition NK-92 assay IC50 [8] was 4.33 nM. For the same substance, the IC50 (IL-18BP inhibition of IFNγ, NK92) [9] was 1.47 nM, the IL-18BP-mediated IFNγ inhibition NK-92 assay IC50 [9] was 0.403 nM and the IC50 (IL-18BP inhibition of IFNγ, NK92) [10] was 229 nM. For the same substance, the IC50 (IL-18BP inhibition of IFNγ, NK92) [11] was > 55 nM, the IC50 (IL-18BP inhibition of IFNγ, NK92) [12] was 27.3 nM and the IC50 (IL-18BP inhibition of IFNγ, NK92) [13] was 4.46 nM. For the same substance, the IC50 (IL-18BP inhibition of IFNγ, NK92) [14] was 7.79 nM, the IC50 (IL-18BP inhibition of IFNγ, NK92) [15] was > 703 nM and the IC50 (IL-18BP inhibition of IFNγ, NK92) [16] was 396 nM. For the same substance, the IC50 (IL-18BP inhibition of IFNγ, NK92) [17] was 15 nM, the IC50 (IL-18BP inhibition of IFNγ, NK92) [18] was 37.3 nM and the IC50 (IL-18BP inhibition of IFNγ, NK92) [19] was 1060 nM. It also gave an IC50 (IL-18BP inhibition of IFNγ, NK92) [20] of 27.8 nM, an IC50 (IL-18BP inhibition of IFNγ, NK92) [21] of 0.189 nM and an IC50 (IL-18BP inhibition of IFNγ, NK92) [22] of 0.444 nM. For the same substance, the IC50 (IL-18BP inhibition of IFNγ, NK92) [23] was 0.114 nM, the IC50 (IL-18BP inhibition of IFNγ, NK92) [24] was 62.4 nM and the IC50 (IL-18BP inhibition of IFNγ, NK92) [25] was > 1000 nM. It also gave an IC50 (IL-18BP inhibition of IFNγ, NK92) [26] of 0.239 nM, an IC50 (IL-18BP inhibition of IFNγ, NK92) [27] of 47.1 nM and an IC50 (IL-18BP inhibition of IFNγ, NK92) [28] of 18.2 nM. The IC50 (IL-18BP inhibition of IFNγ, NK92) [29] was 23.5 nM, the IC50 (IL-18BP inhibition of IFNγ, NK92) [30] was > 1000 nM and the IC50 (IL-18BP inhibition of IFNγ, NK92) [31] was 146 nM. The IC50 (IL-18BP inhibition of IFNγ, NK92) [32] was 654 nM, the IC50 (IL-18BP inhibition of IFNγ, NK92) [33] was 5.85 nM and the IC50 (IL-18BP inhibition of IFNγ, NK92) [34] was 780 nM. It also gave an IC50 (IL-18BP inhibition of IFNγ, NK92) [35] of 284 nM and an IC50 (IL-18BP inhibition of IFNγ, NK92) [36] of 961 nM.
